For the series, the target named is T1, PhoP (non-phosphorylated) (Escherichia coli ExPEC (APEC) FY26 (O2:K1, ST95)?) (UniProt Q8CXZ9).
T1 sequence: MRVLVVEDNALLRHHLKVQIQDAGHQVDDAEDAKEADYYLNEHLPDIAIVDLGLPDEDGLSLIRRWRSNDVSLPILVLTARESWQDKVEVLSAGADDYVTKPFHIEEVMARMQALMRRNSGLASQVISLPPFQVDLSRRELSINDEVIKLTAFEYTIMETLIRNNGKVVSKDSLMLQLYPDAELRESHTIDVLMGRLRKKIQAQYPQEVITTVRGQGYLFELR
Nature of the series: EMSA.

Drawing on paper PMC5913352, this text covers binding for one sequence.

Consider “CAGGACTGAAACGCTTCCTTCATGTTGGTACTGCTATGTCTTGTACACCTCATACGGGGTCGCTAGTTAAGGAAGAGTCTGCTTCATCAGAAACAGGTGAACATTTAGTGGAGTATACGCATTCAAAAGCAACAATAGAATATCTGATGCGTAAGCAGTGTCCTGATTTACCTTTGTTGGTTGCCCGACCATCAATTATT (double strand)”, for which the binding entry was “no binding”.
